Source: patent US7264954B2, “Lipoxygenase” (Novozymes A/S, priority 2001, dated 2007)

What was measured:
[1] = target: M. salvinii lipoxygenase (Nakataea oryzae, UniProt P0CT92); details: per substrate
[2] = target: T1, soybean lipoxygenase (Glycine max, UniProt P08170); experiment: Substrate kinetic parameters with soybean lipoxygenase (comparison); type: biochemical
T1 sequence (P08170 1-839): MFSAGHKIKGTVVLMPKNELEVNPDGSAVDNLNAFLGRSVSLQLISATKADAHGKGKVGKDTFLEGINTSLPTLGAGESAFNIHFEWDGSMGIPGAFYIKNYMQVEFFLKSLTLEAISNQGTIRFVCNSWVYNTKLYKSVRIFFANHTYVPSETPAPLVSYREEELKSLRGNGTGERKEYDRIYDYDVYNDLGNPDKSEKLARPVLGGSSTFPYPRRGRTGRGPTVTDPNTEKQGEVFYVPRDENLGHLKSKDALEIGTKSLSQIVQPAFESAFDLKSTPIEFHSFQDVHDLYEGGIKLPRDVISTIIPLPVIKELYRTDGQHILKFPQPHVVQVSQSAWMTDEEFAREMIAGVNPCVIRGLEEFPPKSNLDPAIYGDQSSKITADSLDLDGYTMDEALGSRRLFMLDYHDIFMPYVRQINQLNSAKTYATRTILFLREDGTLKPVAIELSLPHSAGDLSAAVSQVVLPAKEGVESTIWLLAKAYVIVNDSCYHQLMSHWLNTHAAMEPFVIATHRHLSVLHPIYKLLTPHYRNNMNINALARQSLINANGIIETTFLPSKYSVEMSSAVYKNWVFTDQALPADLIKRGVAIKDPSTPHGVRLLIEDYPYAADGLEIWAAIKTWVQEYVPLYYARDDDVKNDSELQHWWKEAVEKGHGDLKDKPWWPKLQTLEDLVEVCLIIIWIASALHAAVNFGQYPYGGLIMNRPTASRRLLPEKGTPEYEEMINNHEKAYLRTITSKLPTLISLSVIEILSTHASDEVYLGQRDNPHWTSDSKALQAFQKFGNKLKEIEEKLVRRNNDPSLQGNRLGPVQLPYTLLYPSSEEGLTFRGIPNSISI
Experimental: Soybean lipoxygenase (type I-B) (cat.# L7315) and astaxanthin (cat.# A-9335) was supplied by Sigma. b-carotene (cat.# 031-05533) were supplied by Wako. For comparison, one substrate was also tested with soybean lipoxygenase.

[3] = test system: CCCCC/C=C\C/C=C\C/C=C\C/C=C\CCCC(=O)O; experiment: purified protein, by the assay type
[4] = test system: CCCCC/C=C\C/C=C\CCCCCCCC(=O)Cl; experiment: purified protein, by the assay type
[5] = test system: CCCCC/C=C\C/C=C\CCCCCCCC(=O)OC; experiment: purified protein, by the assay type
[6] = test system: CCCCC/C=C\C/C=C\CCCCCCCCOC(C)=O; experiment: purified protein, by the assay type
[7] = test system: CCCCC/C=C\C/C=C\CCCCCCCCO; experiment: purified protein, by the assay type
[8] = Bleaching assay, β-carotene pigment solution; type: biochemical
Experimental: (§1) Bleaching effect by lipoxygenase was examined spectrophotometrically at 25° C. by following the absorbance at 470 nm. The pigment solution was prepared as follows. 150 ul of stock pigment solution (1 mg each pigment in 1 ml chloroform) was evaporated to be dry. Then 30 ml of the buffer (50 mM KH2PO4NaHPO4, pH 7.0) with 0.3% of Tween 20 was added slowly and the pigment was dissolved.
(§2) The bleaching effect of M. salvinii LOX was examined. Soybean L1 was included for comparison. β-carotene and astaxanthin were used as pigments.

[9] = Bleaching assay, astaxanthin pigment solution; type: biochemical
Experimental: as §1, §2

Sequence of M. salvinii lipoxygenase (P0CT92 18-617): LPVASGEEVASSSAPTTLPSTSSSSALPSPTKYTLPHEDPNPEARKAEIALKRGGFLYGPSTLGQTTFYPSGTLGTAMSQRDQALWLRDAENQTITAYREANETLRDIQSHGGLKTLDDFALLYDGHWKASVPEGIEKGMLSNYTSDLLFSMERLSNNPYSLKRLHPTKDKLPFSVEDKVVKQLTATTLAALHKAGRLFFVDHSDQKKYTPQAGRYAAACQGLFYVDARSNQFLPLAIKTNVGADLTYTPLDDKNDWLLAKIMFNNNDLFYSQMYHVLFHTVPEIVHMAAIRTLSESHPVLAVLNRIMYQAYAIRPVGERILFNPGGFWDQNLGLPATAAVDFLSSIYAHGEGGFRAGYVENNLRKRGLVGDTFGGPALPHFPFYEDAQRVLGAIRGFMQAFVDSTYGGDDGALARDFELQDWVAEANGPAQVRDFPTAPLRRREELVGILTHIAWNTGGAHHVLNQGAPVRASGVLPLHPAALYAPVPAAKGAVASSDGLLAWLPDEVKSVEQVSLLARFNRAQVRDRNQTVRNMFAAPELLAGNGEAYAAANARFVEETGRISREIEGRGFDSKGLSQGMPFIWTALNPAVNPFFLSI

For `CCCCC/C=C/C/C=C/CCCCCCCC(=O)O` [Linoelaidic acid], the KM [1] was “No activity”, the Vmax [1] was “No activity” and the Vmax/KM [1] was “No activity”.

Molecule `CCCCC/C=C\C/C=C\CCCCCCCC(=O)O` [Linoleic acid] has a Km [2] of 230 µM, a Vmax [2] of 12.3 µmol/min/mg and a Km [1] of 1 µM. The Vmax [1] was 2.63 µmol/min/mg.

For `CC/C=C\C/C=C\C/C=C\CCCCCCCC(=O)O` [Linolenic acid], the Km [1] was 0.4 µM.

For `CCCCC/C=C\C/C=C\CCCCCCCC(=O)O` [Na linoleate], the Km [1] was 0.41 µM and the Vmax [1] was 2.07 µmol/min/mg.

With “M. salvinii lipoxygenase (Nakataea oryzae)” the Km [3] was 5.5 µM, the Vmax [3] was 2.44 µmol/min/mg and the Vmax/Km [3] was 446000 µL/min/mg. The Km [4] was 12 µM, the Vmax [4] was 0.97 µmol/min/mg and the Vmax/Km [4] was 80000 µL/min/mg. It also gave a Km [5] of 30 µM, a Vmax [5] of 0.82 µmol/min/mg and a Vmax/Km [5] of 26000 µL/min/mg. It also gave a Km [6] of 9 µM, a Vmax [6] of 0.77 µmol/min/mg and a Vmax/Km [6] of 85000 µL/min/mg. The Km [7] was 8 µM, the Vmax [7] was 1.4 µmol/min/mg and the Vmax/Km [7] was 175000 µL/min/mg.

B1: Soybean L1: Soybean lipoxygenase (type I-B) (cat.# L7315) supplied by Sigma, included for comparison (protein, UniProt P08170 1-839, looked up)
Seed linoleate …: T1 sequence (P08170 1-839)
With B1 the ΔA470/min ([8]; β-carotene) was 0.00005, the “bleaching effect (in words)” value ([8]; β-carotene and astaxanthin pigment solutions) was “little effect on bleaching” and the LOX activity ([8]; β-carotene experiment) was 1.962. The “absorbance at 470 nm” value ([8]; β-carotene, time 0 min, 25° C., pH 7.0) was 0.3575, the “absorbance at 470 nm” value ([8]; β-carotene, time 0.4 min) was 0.3616 and the “absorbance at 470 nm” value ([8]; β-carotene, time 0.8 min) was 0.3601. For the same molecule, the “absorbance at 470 nm” value ([8]; β-carotene, time 1.2 min) was 0.362, the “absorbance at 470 nm” value ([8]; β-carotene, time 1.4 min) was 0.3602 and the “absorbance at 470 nm” value ([8]; β-carotene, time 1.8 min) was 0.3602. The “absorbance at 470 nm” value ([8]; β-carotene, time 2.2 min) was 0.3595, the “absorbance at 470 nm” value ([8]; β-carotene, time 2.6 min) was 0.3595 and the “absorbance at 470 nm” value ([8]; β-carotene, time 3 min) was 0.3594. For the same molecule, the ΔA470/min ([9]; Astaxanthin) was 0.0021, the LOX activity ([9]; Astaxanthin experiment) was 2.018 and the “absorbance at 470 nm” value ([9]; Astaxanthin, time 0 min, 25° C., pH 7.0) was 0.5026. The “absorbance at 470 nm” value ([9]; Astaxanthin, time 0.4 min) was 0.5029, the “absorbance at 470 nm” value ([9]; Astaxanthin, time 0.8 min) was 0.505 and the “absorbance at 470 nm” value ([9]; Astaxanthin, time 1 min) was 0.5025. For the same molecule, the “absorbance at 470 nm” value ([9]; Astaxanthin, time 1.4 min) was 0.5013, the “absorbance at 470 nm” value ([9]; Astaxanthin, time 1.8 min) was 0.4993 and the “absorbance at 470 nm” value ([9]; Astaxanthin, time 2.2 min) was 0.4985. For the same molecule, the “absorbance at 470 nm” value ([9]; Astaxanthin, time 2.6 min) was 0.4986 and the “absorbance at 470 nm” value ([9]; Astaxanthin, time 3 min) was 0.498.
